Experimental data published in the RNAGym collection of RNA variant scans (doi:10.7554/elife.80360).

B1: HDV Ribozyme (parent)
chain: GGCCGGCAUGGUCCCAGCCUCCUCGCUGGCGCCGGCUGGGCAACAUUCCGAGGGGACCGUCCCCUCGGUAAUGGCGAAUGGGACCCA

Variants of: B1
Assay: self-cleavage, relative activity (ratio to wild type); higher = more cleavage; co-transcriptional

Row | Variant | self-cleavage
1 | GGCCGGCAUGGUCCCAGCCUCGUCGCUGGCGCCGGCUGAGCAACAUUCCGAGGGGACCGUCCCCUCGGUAAUGGCGAAUGGGACCCA [C22G G39A] | 0.0817
2 | GGCCGGCGUGGUCCCAGCCACCUCGCUGGCGCCGGCUGGGCAACAUUCCGAGGGGACCGUCCCCUCGGUAAUGGCGAAUGGGACCCA [A8G U20A] | 0.151
3 | GGCCGGCAUGGUCCCAGCCUCCUCGCUGGCGCCGGCUGGGCAACAUUCCGAGGGGACCGUCCCCUUGGUAAUGGCGAAUGGUACCCA [C66U G82U] | 0.277
4 | GACCGGCAUGGUCCCAGCCCCCUCGCUGGCGCCGGCUGGGCAACAUUCCGAGGGGACCGUCCCCUCGGUAAUGGCGAAUGGGACCCA [G2A U20C] | 0.0536
5 | GGCCGGCAUGGUCCCAGCCUCCUCGCUGGCGCCGGCUGGGCAACAUUCCGAGGGGACCGUCUCCUCGGGAAUGGCGAAUGGGACCCA [C62U U69G] | 1.07
6 | GGCCGGCAUGGUCCCAGUCUCCUCGCUGGCGCCGGCUGGGCAACAUUCCGAGGGGACCGUCCCCUCGGUACUGGCGAAUGGGACCCA [C18U A71C] | 0.259
7 | GGCCGGCAUGGUCCCAGCCUCCUCGCUGGCGCCGGCUGGGCAAUAUUCCGAGGGGACCGUCCCCUCGGUAAUGGCGAAUGGUACCCA [C44U G82U] | 0.282
8 | GGCCGGCAUGGUCCCAGCCUCCUCGCUGGCGCCGGCUGGGCAACAUUCCGAGGGGACCGUCCCCUCGGUAAUGGCGGAUGGGACCGA [A77G C86G] | 0.886
9 | GGCCGGCACGGUCCCAGCCUCCUCGCUGGCGCCGGCUGGGCAACAUUCCGAGGGGACCGUCCGCUCGGUAAUGGCGAAUGGGACCCA [U9C C63G] | 0.831
10 | GGCAGGCAUGGUCCCAGCCUCCUCGCUGGCGCCGGCUGGGCAACAUUCCGAGGGGACCGUCCCCUCGGUAAUGGCGAAUGGGACCAA [C4A C86A] | 0.185
11 | GGCCGGCAUGGUCCCAGCCACCUCGGUGGCGCCGGCUGGGCAACAUUCCGAGGGGACCGUCCCCUCGGUAAUGGCGAAUGGGACCCA [U20A C26G] | 0
12 | GGCCGGCAUGGUCCCAGCCUCCUCGCUGGCGGCGGCUGGGCAACAUUCCGAGAGGACCGUCCCCUCGGUAAUGGCGAAUGGGACCCA [C32G G53A] | 0.205
13 | GGCCGGCAUGGUCCCAGCCUCCUCGCUGGCGCCGGCUGGGCAACAUUCCGAGGGGUCCGUCCCCUCGGUAAUGGCGAAUGGGACUCA [A56U C85U] | 1.12
14 | GGCCGGCAUGGUCCCAGCCUCGUCGCUGGCGCCGGUUGGGCAACAUUCCGAGGGGACCGUCCCCUCGGUAAUGGCGAAUGGGACCCA [C22G C36U] | 0.108
15 | GGCCGGCAUGGUCCCAGCCUCCUCGCUGGCGCCGGCUGGGCAACAUUCCGAGGGGACCGUCCCCUCGGUAAUUGUGAAUGGGACCCA [G73U C75U] | 0.111
16 | GGCCGGCAUGGUCCCAGCCUCCUCCCUGGCGCCGGCUGGGCAACAUCCCGAGGGGACCGUCCCCUCGGUAAUGGCGAAUGGGACCCA [G25C U47C] | 0

Row | Variant | self-cleavage
17 | GGCCGGCAUGGUCCCAGCCUCCUCGCUGGCGCCGGCUGGGCGACAUUCCGAGGUGACCGUCCCCUCGGUAAUGGCGAAUGGGACCCA [A42G G54U] | 0.502
18 | GGCCGGCAUGGUCCCAACCUCCUCGCUGGCGCCGGCUGGGCAACAUUCCGAGGGGACAGUCCCCUCGGUAAUGGCGAAUGGGACCCA [G17A C58A] | 0.746
19 | GGCCGGCAUGGUCCCAGCCUCCUCGCUGGCGCCGGCUGGGCAACACUCCGAGGGGACCGUCCCCUCGGUAAUGGCGAAUGGGACCGA [U46C C86G] | 0.852
20 | GGCCGGCAUGGUCCCAGCCUCCUCGCUGGCUCCGGCUGGGCAACAUUCCGAGGGGACCGUCCCCUUGGUAAUGGCGAAUGGGACCCA [G31U C66U] | 0.437
21 | GGCCGGCAUGGUCCCAGCCUCCUCGCUCGCGCCGGCUGGGCAACAUUCCGAGGGCACCGUCCCCUCGGUAAUGGCGAAUGGGACCCA [G28C G55C] | 0.0692
22 | GGCCGGCAUGGUCCCUGCCUCCUCGCUGGCGCCGGCUGGGCAACAUUCCGAGGGGACCGUCCCCUCGGUACUGGCGAAUGGGACCCA [A16U A71C] | 0.942
23 | GGCCGGCAUGGUCCCAGCCUCCUCGCUGGCGCCGGCUGGGCAACAUUCCGAGGGGACCGUCCCCUCGGUAAUGGCGAAAGGGCCCCA [U79A A83C] | 0.151
24 | GGCCGCCAUGGUCCCAGCCUCCUCGCUGGCGCCGGCUGGGCAACAUUCCGAGGGGACCGUCCCCUCGGUAAUUGCGAAUGGGACCCA [G6C G73U] | 0.0923
25 | GGCCGGCAUGGUCCCAACCUCCUCGCUGGCGCCGGCUGGGCAACAUUCCGAGGGGACCGUCCCCUCGGUAAUGGCGAAUGGGCCCCA [G17A A83C] | 0.665
26 | GGCCGGCAUGGUCCCAGCCUCCUCGCUGGCGCCGGCUGGGCAACAUUCCGAGGGGACCGUCCCCUCUGUAAUGGCGAAUGGCACCCA [G67U G82C] | 0.182
27 | GGCCGGCAUGGUCCCAGCCUCCUCGCUGGCGCCGGCUGGGCAACAUUCCGAGGGGGCCGUCCCCUCGGUAAUGGCGACUGGGACCCA [A56G A78C] | 0.203
28 | GGCCGGCAUGGUCCGAGCCUCCUCGCUGGCGCCGGCUGGGCAGCAUUCCGAGGGGACCGUCCCCUCGGUAAUGGCGAAUGGGACCCA [C15G A43G] | 0.237
29 | GGCCGGCAUGGUCCCAGCCUCCUCGCUGGCGCCGGCUGGGCAACAUUCCGAGGGCACCGUCCCCUCGGUAAAGGCGAAUGGGACCCA [G55C U72A] | 0.743
30 | GGCCGGCAUGGUCCCAGCCUCCUCGCUGGCGCCGGCUGGGCAACAUUCCGAGGGGACCGUCCCCUCGGUAAUGGCGAAUCAGACCCA [G80C G81A] | 0.089
31 | GGCCGGCAUGGUCCCAGCCUCCUCACUGGCGCCGGCUGGGUAACAUUCCGAGGGGACCGUCCCCUCGGUAAUGGCGAAUGGGACCCA [G25A C41U] | 0.155
32 | GGCCGGCAUGGUCCCAGCCUCCACGCUGGCACCGGCUGGGCAACAUUCCGAGGGGACCGUCCCCUCGGUAAUGGCGAAUGGGACCCA [U23A G31A] | 0.489
